Experimental data as given in the supplement of paper PMC10567573.

B1: ZNF449 (parent)
chain: CTHCSKSFRQRAGLIMHQVTHFRG

Variants of: B1
Test: protein stability index of a GFP-peptide fusion (GPS, HEK-293T) (PSI 1-6); higher = more stable
Details: c terminus: a fixed tail appended
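Also: lentivirally expressed fusions sorted by FACS into six bins by GFP to DsRed ratio, PSI derived from sequencing read proportions per bin multiplied by bin number.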

Variant | protein stability index
MTHCSKSFRQRAGLIMHQVTHFRG [C1M] | 1.53
WTHCSKSFRQRAGLIMHQVTHFRG [C1W] | 3.78
ITHCSKSFRQRAGLIMHQVTHFRG [C1I] | 1.74
ETHCSKSFRQRAGLIMHQVTHFRG [C1E] | 1.77
HTHCSKSFRQRAGLIMHQVTHFRG [C1H] | 1.96
RTHCSKSFRQRAGLIMHQVTHFRG [C1R] | 1.93
NTHCSKSFRQRAGLIMHQVTHFRG [C1N] | 1.72
DTHCSKSFRQRAGLIMHQVTHFRG [C1D] | 2.01
VTHCSKSFRQRAGLIMHQVTHFRG [C1V] | 1.64
KTHCSKSFRQRAGLIMHQVTHFRG [C1K] | 2.66
YTHCSKSFRQRAGLIMHQVTHFRG [C1Y] | 1.2
ATHCSKSFRQRAGLIMHQVTHFRG [C1A] | 2.17
LTHCSKSFRQRAGLIMHQVTHFRG [C1L] | 2.48
TTHCSKSFRQRAGLIMHQVTHFRG [C1T] | 1.5
STHCSKSFRQRAGLIMHQVTHFRG [C1S] | 1.91
FTHCSKSFRQRAGLIMHQVTHFRG [C1F] | 1.22
QTHCSKSFRQRAGLIMHQVTHFRG [C1Q] | 3.23
CTHCSKSFSQRAGLIMHQVTHFRG [R9S] | 3.04
CTHCSKSFPQRAGLIMHQVTHFRG [R9P] | 2.29
CTHCSKSFCQRAGLIMHQVTHFRG [R9C] | 2.33
CTHCSKSFTQRAGLIMHQVTHFRG [R9T] | 2.77
CTHCSKSFGQRAGLIMHQVTHFRG [R9G] | 2.18
CTHCSKSFLQRAGLIMHQVTHFRG [R9L] | 1.96
CTHCSKSFAQRAGLIMHQVTHFRG [R9A] | 2.58

Variant | protein stability index
CTHCSKSFEQRAGLIMHQVTHFRG [R9E] | 2.15
CTHCSKSFHQRAGLIMHQVTHFRG [R9H] | 1.87
CTHCSKSFVQRAGLIMHQVTHFRG [R9V] | 3.17
CTHCSKSFWQRAGLIMHQVTHFRG [R9W] | 2.07
CTHCSKSFNQRAGLIMHQVTHFRG [R9N] | 2.77
CTHCSKSFMQRAGLIMHQVTHFRG [R9M] | 2.9
CTHCSKSFKQRAGLIMHQVTHFRG [R9K] | 2.81
CTHCSKSFIQRAGLIMHQVTHFRG [R9I] | 1.94
CTHCSKSFYQRAGLIMHQVTHFRG [R9Y] | 1.79
CTHCSKSFDQRAGLIMHQVTHFRG [R9D] | 3.85
CTHCSKSFQQRAGLIMHQVTHFRG [R9Q] | 2.63
CTHSSKSFRQRAGLIMHQVTHFRG [C4S] | 1.33
CTHPSKSFRQRAGLIMHQVTHFRG [C4P] | 1.6
CTHMSKSFRQRAGLIMHQVTHFRG [C4M] | 1.68
CTHGSKSFRQRAGLIMHQVTHFRG [C4G] | 1.8
CTHDSKSFRQRAGLIMHQVTHFRG [C4D] | 1.66
CTHLSKSFRQRAGLIMHQVTHFRG [C4L] | 2.13
CTHRSKSFRQRAGLIMHQVTHFRG [C4R] | 2.11
CTHWSKSFRQRAGLIMHQVTHFRG [C4W] | 3.01
CTHESKSFRQRAGLIMHQVTHFRG [C4E] | 1.77
CTHISKSFRQRAGLIMHQVTHFRG [C4I] | 2.58
CTHKSKSFRQRAGLIMHQVTHFRG [C4K] | 1.63
CTHHSKSFRQRAGLIMHQVTHFRG [C4H] | 2.39
CTHTSKSFRQRAGLIMHQVTHFRG [C4T] | 2.18

Variant | protein stability index
CTHASKSFRQRAGLIMHQVTHFRG [C4A] | 2.6
CTHQSKSFRQRAGLIMHQVTHFRG [C4Q] | 1.98
CTHNSKSFRQRAGLIMHQVTHFRG [C4N] | 2.17
CTHVSKSFRQRAGLIMHQVTHFRG [C4V] | 1.58
CTHCSKSFRARAGLIMHQVTHFRG [Q10A] | 2.51
CTHCSKSFRCRAGLIMHQVTHFRG [Q10C] | 2.43
CTHCSTSFRQRAGLIMHQVTHFRG [K6T] | 2.84
CTHCSDSFRQRAGLIMHQVTHFRG [K6D] | 1.62
CTHCSISFRQRAGLIMHQVTHFRG [K6I] | 2.47
CTHCSCSFRQRAGLIMHQVTHFRG [K6C] | 1.52
CTHCSMSFRQRAGLIMHQVTHFRG [K6M] | 1.88
CTHCSYSFRQRAGLIMHQVTHFRG [K6Y] | 2.62
CTHCSASFRQRAGLIMHQVTHFRG [K6A] | 4.92
CTHCSRSFRQRAGLIMHQVTHFRG [K6R] | 1.91
CTHCSQSFRQRAGLIMHQVTHFRG [K6Q] | 3.32
CTHCSLSFRQRAGLIMHQVTHFRG [K6L] | 2.3
CTHCSESFRQRAGLIMHQVTHFRG [K6E] | 1.58
CDHCSKSFRQRAGLIMHQVTHFRG [T2D] | 1.86
CIHCSKSFRQRAGLIMHQVTHFRG [T2I] | 2.7
CCHCSKSFRQRAGLIMHQVTHFRG [T2C] | 2.09
CGHCSKSFRQRAGLIMHQVTHFRG [T2G] | 1.5
CVHCSKSFRQRAGLIMHQVTHFRG [T2V] | 1.98
CRHCSKSFRQRAGLIMHQVTHFRG [T2R] | 2.18
CPHCSKSFRQRAGLIMHQVTHFRG [T2P] | 1.82

Variant | protein stability index
CEHCSKSFRQRAGLIMHQVTHFRG [T2E] | 2.4
CFHCSKSFRQRAGLIMHQVTHFRG [T2F] | 1.45
CMHCSKSFRQRAGLIMHQVTHFRG [T2M] | 1.71
CQHCSKSFRQRAGLIMHQVTHFRG [T2Q] | 2.84
CLHCSKSFRQRAGLIMHQVTHFRG [T2L] | 1.97
CKHCSKSFRQRAGLIMHQVTHFRG [T2K] | 2.25
CNHCSKSFRQRAGLIMHQVTHFRG [T2N] | 2.29
CHHCSKSFRQRAGLIMHQVTHFRG [T2H] | 1.92
CSHCSKSFRQRAGLIMHQVTHFRG [T2S] | 1.98
CTHCSKCFRQRAGLIMHQVTHFRG [S7C] | 2.98
CTHCSKYFRQRAGLIMHQVTHFRG [S7Y] | 2.44
CTHCSKAFRQRAGLIMHQVTHFRG [S7A] | 2.14
CTHCSKPFRQRAGLIMHQVTHFRG [S7P] | 1.59
CTHCSKVFRQRAGLIMHQVTHFRG [S7V] | 2.22
CTHCSKRFRQRAGLIMHQVTHFRG [S7R] | 1.31
CTHCSKWFRQRAGLIMHQVTHFRG [S7W] | 1.78
CTHCSKQFRQRAGLIMHQVTHFRG [S7Q] | 1.76
CTHCSKLFRQRAGLIMHQVTHFRG [S7L] | 2.69
CTHCSKEFRQRAGLIMHQVTHFRG [S7E] | 2.29
CTHCSKDFRQRAGLIMHQVTHFRG [S7D] | 2.18
CTHCSKIFRQRAGLIMHQVTHFRG [S7I] | 1.73
CTHCSKNFRQRAGLIMHQVTHFRG [S7N] | 2.58
